Experiments:
Test in all cases: split reporter (BiFC, NanoBiT); SFLC in living Arabidopsis mesophyll protoplasts: Aux/IAA-FLucN or MYB30-FLucN co-expressed with ARFCTD-FLucC or Aux/IAA-FLucC for 6 hr; 10 µg of each construct, 2×10^4 cells, 96-well plate, D-luciferin; relative activity standardised against ARF5CTD-FLucC + IAA28-FLucN
Settings in all cases: partners not purified
[1] = molecular target: T1, ARF1 C-terminal domain (CTD)-FLucC (Arabidopsis, UniProt Q8L7G0 542-665)
T1 construct: Arabidopsis auxin response factor 1, C-terminal dimerization domain (CTD); In the ARF-ARF tests the same CTD stood both as ARFCTD-FLucC and as ARFCTD-FLucN (FLucN, firefly luciferase aa 1-398, in place of FLucC); one molecule for both; also called ARF1CTD-FLucC; ARFCTD-FLucC; source: Arabidopsis mesophyll protoplasts, transfected, in living cells (SFLC) and in lysate (co-IP); not shown: FLucC …
T1 sequence (looked up): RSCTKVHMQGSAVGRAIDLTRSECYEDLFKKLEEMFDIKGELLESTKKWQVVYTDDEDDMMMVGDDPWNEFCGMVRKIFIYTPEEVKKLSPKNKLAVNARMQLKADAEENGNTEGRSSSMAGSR

IAA17-FLucC = molecular target: T2, IAA17-FLucC (Arabidopsis, UniProt P93830 1-229)
T2 construct: Arabidopsis Aux/IAA protein IAA17; also called Aux/IAA-FLucC; source: Arabidopsis mesophyll protoplasts, transfected, in living cells; not shown: FLucC (firefly luciferase aa 394-550)

IAA7-FLucC = molecular target: T3, IAA7-FLucC (Arabidopsis, UniProt Q38825 1-243)
T3 construct: Arabidopsis Aux/IAA protein IAA7; also called Aux/IAA-FLucC; source: Arabidopsis mesophyll protoplasts, transfected, in living cells; not shown: FLucC (firefly luciferase aa 394-550)
T3 sequence (looked up): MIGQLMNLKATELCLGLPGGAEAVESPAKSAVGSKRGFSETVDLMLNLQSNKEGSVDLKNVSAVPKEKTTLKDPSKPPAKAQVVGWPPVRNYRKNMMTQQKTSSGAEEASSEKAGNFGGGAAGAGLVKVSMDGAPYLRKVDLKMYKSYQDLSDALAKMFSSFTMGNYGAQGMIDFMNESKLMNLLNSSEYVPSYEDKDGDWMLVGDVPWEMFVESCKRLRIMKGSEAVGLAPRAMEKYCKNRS

IAA6-FLucC = molecular target: T4, IAA6-FLucC (Arabidopsis, UniProt Q38824 1-189)
T4 construct: Arabidopsis Aux/IAA protein IAA6; also called Aux/IAA-FLucC; source: Arabidopsis mesophyll protoplasts, transfected, in living cells; not shown: FLucC (firefly luciferase aa 394-550)
T4 sequence (looked up): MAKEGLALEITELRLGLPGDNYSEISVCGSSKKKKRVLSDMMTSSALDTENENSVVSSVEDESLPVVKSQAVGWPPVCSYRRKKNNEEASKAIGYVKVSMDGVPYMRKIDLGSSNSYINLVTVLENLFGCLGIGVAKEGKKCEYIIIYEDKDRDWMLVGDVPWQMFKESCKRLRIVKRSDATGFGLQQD

IAA9-FLucC = molecular target: T5, IAA9-FLucC (Arabidopsis, UniProt Q38827 1-338)
T5 construct: Arabidopsis Aux/IAA protein IAA9; also called Aux/IAA-FLucC; source: Arabidopsis mesophyll protoplasts, transfected, in living cells; not shown: FLucC (firefly luciferase aa 394-550)
T5 sequence (looked up): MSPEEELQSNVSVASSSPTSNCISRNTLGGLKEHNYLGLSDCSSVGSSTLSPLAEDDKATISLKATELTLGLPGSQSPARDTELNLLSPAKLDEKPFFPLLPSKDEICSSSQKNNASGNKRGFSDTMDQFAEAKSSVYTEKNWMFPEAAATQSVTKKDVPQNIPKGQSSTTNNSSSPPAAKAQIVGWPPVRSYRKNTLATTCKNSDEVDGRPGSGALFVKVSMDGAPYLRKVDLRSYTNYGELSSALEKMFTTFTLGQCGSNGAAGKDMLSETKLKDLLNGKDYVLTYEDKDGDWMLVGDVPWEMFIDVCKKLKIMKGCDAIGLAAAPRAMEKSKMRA

IAA14-FLucC = molecular target: T6, IAA14-FLucC (Arabidopsis, UniProt Q38832 1-228)
T6 construct: Arabidopsis Aux/IAA protein IAA14; also called Aux/IAA-FLucC; source: Arabidopsis mesophyll protoplasts, transfected, in living cells; not shown: FLucC (firefly luciferase aa 394-550)
T6 sequence (looked up): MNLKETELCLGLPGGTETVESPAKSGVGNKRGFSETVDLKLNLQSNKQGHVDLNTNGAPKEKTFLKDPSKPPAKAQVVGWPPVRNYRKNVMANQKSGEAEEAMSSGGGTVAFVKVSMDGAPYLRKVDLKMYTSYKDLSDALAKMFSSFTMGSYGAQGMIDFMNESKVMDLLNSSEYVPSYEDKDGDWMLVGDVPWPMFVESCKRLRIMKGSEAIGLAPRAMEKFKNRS

Measured: relative luciferase activity (standardised against ARF5CTD-FLucC + IAA28-FLucN)

T2 sequence (P93830 whole entry, the tested form may be a part): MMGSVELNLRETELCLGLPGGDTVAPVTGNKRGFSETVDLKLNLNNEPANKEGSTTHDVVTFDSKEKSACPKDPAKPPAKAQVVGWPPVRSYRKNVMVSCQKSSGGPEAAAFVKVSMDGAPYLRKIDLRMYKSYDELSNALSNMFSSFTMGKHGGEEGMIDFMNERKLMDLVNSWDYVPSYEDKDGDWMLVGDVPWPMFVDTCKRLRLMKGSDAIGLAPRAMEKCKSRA

B1: MYB30-FLucN (natural protein, UniProt Q9SCU7 1-323, looked up)
chain: MVRPPCCDKGGVKKGPWTPEEDIILVTYIQEHGPGNWRAVPTNTGLLRCSKSCRLRWTNYLRPGIKRGNFTEHEEKMIVHLQALLGNRWAAIASYLPQRTDNDIKNYWNTHLKKKLNKVNQDSHQELDRSSLSSSPSSSSANSNSNISRGQWERRLQTDIHLAKKALSEALSPAVAPIITSTVTTTSSSAESRRSTSSASGFLRTQETSTTYASSTENIAKLLKGWVKNSPKTQNSADQIASTEVKEVIKSDDGKECAGAFQSFSEFDHSYQQAGVSPDHETKPDITGCCSNQSQWSLFEKWLFEDSGGQIGDILLDENTNFF
notes: transcription factor MYB30, the unrelated protein used as negative control; source: Arabidopsis mesophyll protoplasts, transfected, in living cells; not shown: FLucN (firefly luciferase aa 1-398)
< 0.1: [1] | IAA17-FLucC | IAA7-FLucC | IAA6-FLucC | IAA9-FLucC | IAA14-FLucC

Reference: PMC3212559, “Large-Scale Protein-Protein Interaction Analysis in Arabidopsis Mesophyll Protoplasts by Split Firefly Luciferase Complementation” (PLoS ONE, 2011)
